Residue numbers refer to the chain shown, from its start. No end group written: not given here.

The IC50 is the concentration that inhibits the measured activity by half. High values mean a need for much substance, low ones inhibition by little substance.

One test deals with T1, GLP-1R Q211A (Homo sapiens).
T1 chain: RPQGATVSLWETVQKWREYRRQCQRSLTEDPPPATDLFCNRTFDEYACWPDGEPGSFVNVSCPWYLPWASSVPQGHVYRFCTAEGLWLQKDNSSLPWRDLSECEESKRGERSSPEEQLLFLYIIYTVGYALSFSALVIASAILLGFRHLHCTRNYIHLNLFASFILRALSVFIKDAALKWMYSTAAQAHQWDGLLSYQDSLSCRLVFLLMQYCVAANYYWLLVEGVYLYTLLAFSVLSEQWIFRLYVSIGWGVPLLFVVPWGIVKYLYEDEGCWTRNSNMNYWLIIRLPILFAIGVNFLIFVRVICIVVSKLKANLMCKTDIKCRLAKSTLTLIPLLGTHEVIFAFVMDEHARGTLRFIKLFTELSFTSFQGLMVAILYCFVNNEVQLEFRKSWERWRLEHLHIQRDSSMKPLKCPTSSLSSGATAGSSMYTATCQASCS

In a further test the target is T2, GLP-1R S206A (Homo sapiens).
T2 chain: T1 chain with S183A, A188Q

For a further test, the target named is T3, GLP-1R S193A (Homo sapiens).
T3 chain: T1 chain with S170A, A188Q

The target of a further test is T4, GLP-1R V194A (Homo sapiens).
T4 chain: T1 chain with V171A, A188Q

Another test concerns the target T5, GLP-1R D198A (Homo sapiens).
T5 chain: T1 chain with D175A, A188Q

Another test has as its target T6, GLP-1R E138A (Homo sapiens).
T6 chain: T1 chain with E115A, A188Q

B1: oxyntomodulin (peptide)
peptide: HSQGTFTSDYSKYLDSRRAQDFVQWLMNTKRNRNNIA
Consider B1, for which the IC50 with GLP-1R Q211A was determined as 19.5 nM; with GLP-1R S206A it was 16.6 nM; with GLP-1R S193A, 14.8 nM; with GLP-1R V194A it was 77.6 nM; in the test with GLP-1R D198A, 708 nM; in the test with GLP-1R E138A, 45.7 nM.

B2: glucagon-like peptide-1 (peptide)
chain: HAEGTFTSDVSSYLEGQAAKEFIAWLVKGR
modifications: not fully specified (C-terminus)
Take B2: the IC50 in the test with GLP-1R Q211A amounted to 2.34 nM; with GLP-1R S206A, 4.9 nM; in the test with GLP-1R S193A, 5.01 nM; with GLP-1R V194A it was 6.17 nM; with GLP-1R D198A, 155 nM; in the test with GLP-1R E138A, 6.92 nM.
